In one assay the target is T1, SBP-tagged HER3-ECD (human, UniProt P21860 20-643).
T1 construct: not shown: SBP tag
As to the kind of experiment: plate assay: SBP-tagged HER3-ECD on streptavidin plate, antibody titrated, 10 nM Europium-labeled Heregulin-beta detected by time-resolved fluorescence; half-maximal rise of the Heregulin signal. On the procedure:
On the next day the wells were washed three times with washing buffer (PBS+0.05% Tween-20) and blocked with PBS containing 1% BSA for one hour. After another three washes with washing buffer, 40 μl antibody solution (in Delfia Binding Buffer) was added to each well as a 2× stock of the desired final concentrations (10⁻³ to 10³ nM, alternatively 10⁻⁴ to 10² nM). Immediately […] of 20 nM Europium-labeled Heregulin-beta (PeproTech, Cat. #100-03) was added to achieve a final concentration of 10 nM. The plates were incubated on a shaker at room temperature for two hours. Following three washes with Delfia Wash Buffer, Delfia Enhancement Solution was added and incubated on a shaker for 15 minutes (light protected). Finally, the plates were measured in a Tecan Infinite F200 reader using a time-resolved fluorescence measurement protocol.

The target in assay [1] is T2, HER3 ECD-HRG complex (Heregulin-activated Her-3 ECD) (human, UniProt P21860 20-643).
T2 construct: receptor-ligand complex made by preincubating HER3 ECD with a five-fold molar excess of Heregulin; also called Heregulin/Her-3 ECD; Heregulin-complexed Her-3 ECD
Briefly: SPR, Interaction Map (TraceDrawer), two-state-kinetic no. 2, 25 C. On the technique in general: In SPR one partner is held on a chip, and binding of the other changes the refractive index at the surface.

For the next assay, the target named is T3, TtSlyD-Wildtype.
T3 construct: scaffold without insert; N-terminal methionine can be present or not; also called T.T.SlyD-wt; wild type Thermus thermophilus SlyD protein
T3 chain: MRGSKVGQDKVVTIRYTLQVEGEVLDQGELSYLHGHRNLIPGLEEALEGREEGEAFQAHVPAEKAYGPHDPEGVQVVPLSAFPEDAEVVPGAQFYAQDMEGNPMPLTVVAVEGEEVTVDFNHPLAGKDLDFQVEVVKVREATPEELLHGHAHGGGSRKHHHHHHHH
Briefly: SPR, antibody captured, 25 C.

In assay [2] the target is T4, human Heregulin fragment (HRG) (human).
T4 construct: a 44 kDa homodimeric protein, expressed in FreeStyle 293-F cells; also called Heregulin beta (HRG)
T4 chain: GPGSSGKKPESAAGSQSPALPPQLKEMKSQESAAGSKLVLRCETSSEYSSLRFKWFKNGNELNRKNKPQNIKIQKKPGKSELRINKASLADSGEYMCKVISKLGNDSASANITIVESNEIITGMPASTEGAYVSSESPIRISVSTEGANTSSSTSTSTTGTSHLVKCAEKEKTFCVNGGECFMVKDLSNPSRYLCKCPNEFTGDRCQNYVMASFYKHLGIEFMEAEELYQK
Briefly: SPR Biacore T200, antibody captured, 25 C. Here is the method:
(§1) A Biacore T200 instrument (GE Healthcare) was mounted with a CM5 series sensor. The sensor was normalized in HBS-ET buffer (10 mM HEPES pH 7.4, 150 mM NaCl, 3 mM EDTA, 0.05% w/v Tween 20) according to the manufacturer's instructions. The sample buffer was the system buffer supplemented with 1 mg/ml CMD (Carboxymethyldextran, Sigma #86524). The system operated at 25° C. 6500 RU RAM-Fcγ (relative units of Fcγ-fragment RamlgG, GE Healthcare) were immobilized according to the manufacturer's instructions using amine coupling EDC/NHS chemistry on all four flow cells. The sensor was deactivated using 1M ethanolamine. […] Concentration dependent kinetics were measured. […] All analytes were injected for 5 min association time and 10 min dissociation time at 100 μl/min flow rate. The sensor capture system was regenerated by a 3 min injection at 10 μl/min of 10 mM glycine pH 1.7. Where possible kinetic data was evaluated using the Biacore T200 evaluation software.

In assay [3] the target is T5, HER4 ECD-HRG complex (Heregulin-complexed Her-4 ECD) (human, UniProt Q15303 26-651).
T5 construct: Her-4 ECD incubated with a 5-fold molar excess of Heregulin
T5 sequence 1: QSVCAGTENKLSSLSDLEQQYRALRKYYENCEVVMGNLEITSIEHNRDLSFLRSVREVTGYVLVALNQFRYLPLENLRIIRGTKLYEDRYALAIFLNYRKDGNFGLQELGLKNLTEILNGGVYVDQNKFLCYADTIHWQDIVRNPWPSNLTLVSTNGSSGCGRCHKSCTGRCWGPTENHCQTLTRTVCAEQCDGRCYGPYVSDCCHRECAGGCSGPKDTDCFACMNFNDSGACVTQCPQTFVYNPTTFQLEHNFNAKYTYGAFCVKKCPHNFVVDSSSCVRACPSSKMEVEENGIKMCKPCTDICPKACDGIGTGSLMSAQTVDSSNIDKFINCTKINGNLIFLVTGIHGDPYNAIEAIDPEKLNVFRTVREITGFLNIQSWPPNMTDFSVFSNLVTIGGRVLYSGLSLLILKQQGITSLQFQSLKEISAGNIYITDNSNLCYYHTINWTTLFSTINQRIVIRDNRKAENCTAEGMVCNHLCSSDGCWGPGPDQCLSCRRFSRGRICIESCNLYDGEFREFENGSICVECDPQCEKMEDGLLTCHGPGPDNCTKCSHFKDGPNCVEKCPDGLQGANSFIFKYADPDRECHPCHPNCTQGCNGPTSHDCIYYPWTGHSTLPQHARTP
T5 sequence 2: T4 chain
Briefly: SPR Biacore T200, antibody captured, 25 C. Here is the method: as §1

Another assay has as its target T6, TtSlyDcys-Her3.
T6 chain: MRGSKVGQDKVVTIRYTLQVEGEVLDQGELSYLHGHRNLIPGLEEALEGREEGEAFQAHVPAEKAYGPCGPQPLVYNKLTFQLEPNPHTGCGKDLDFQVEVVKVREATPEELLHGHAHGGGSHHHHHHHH
As to the kind of experiment: ELISA, antigen coated, hybridoma supernatant. Here is the method:
For the ELISA screening an antigen down format was used. […] Hybridoma Supernatant was added to the plates and incubated for 1 h at room temperature. Bound antibody was detected with a HRP-labeled F(ab′)₂ goat anti-mouse Fcγ (Dianova) and ABTS (Roche) was used as a HRP-substrate.
As negative controls the scaffold proteins TtSlyDcas and TgSlyDΔIF were used.
(In general: ELISA stands for enzyme-linked immunosorbent assay.)

Positions count from the first letter of the chain named.

The text below walks through data of patent US20180094062A1 (Hoffmann-La Roche, published 2018).

The EC50 (read off the curve) is the concentration at which the effect is half-maximal. The low end stands for higher potency in that assay, the high end for lower potency in that assay. As a reminder, the Kd is the constant that tells how readily two partners part at equilibrium. Lower therefore signals a tighter complex. For orientation: koff means the first-order rate constant of dissociation. A higher koff goes with a short-lived complex. For orientation: kon means the second-order rate constant of association. A higher kon goes with fast association.

B1: anti-HER3 antibody M-46-01 (antibody, V domains shown)
VH: QIQLQQSGPQLVRPGASVKISCKASGYSFTSYWMHWVKQRPGRGLEWIGMIDPSDGVTRLNQKFKDKATLTVDNSSSTAYMQLSSPTSEDSAVHYCARVDVLYWYFDVWGAGTTVTVSS
VL: DIVLTQSPASLAVSLGQRATISCRASKSISISGYSYMHWYQQKAGQPPKLLIYLTSNLESGVPARFSGSGSGTDFTLNIHPVEEEDAATYYCHHSRELPFTFGSGTKLEIK
notes: mouse hybridoma clone
Regarding B1, the “EC50 (read off the curve)” value in the assay with SBP-tagged HER3-ECD is approximately 2 nM. In assay [1], the affinity, expressed as Kd, was 15.7 nM; the “Weight (contribution to the overall interaction)” value (from here on “Weight”) was 7%; the off-rate (koff) was 0.000774 s⁻¹; the kon was determined as 49400 M⁻¹ s⁻¹. In addition, the binding result with TtSlyD-Wildtype is “no binding”. In addition, the binding result in assay [2] is “no binding (tested: 450 nM)”. In assay [3], the binding result is “no binding (tested: 90 nM)”.

B2: anti-HER3 antibody M-08-11 (antibody, V domains shown)
VH: QAYLQQSGAELMRPGASVRMSCQASGYTFTSYTIHWLKQTPRQGLEWIGAIYPRNGDFSYNQKFKDKASLTVDTSSSTAYMHLSSLTSEDSAVYFCARTINYGDWFAYWGQGTLVTVSA
VL: DIQMIQSPASLFVSEGETVIITCRASENIYSNLAWYHQKKGKSPQVLVYAAIKLADGVPLRFSGSGSGTQFSLKINSLQSEDFGSYYCQHFWGPPYTFGSGTNLEIK
notes: mouse monoclonal antibody from hybridoma, tested as hybridoma supernatant or as antibody; also called M-011
On to B2, for which the “EC50 (read off the curve)” value in the assay with SBP-tagged HER3-ECD is approximately 7 nM. Further, in assay [1], binding was put at a Kd of 23 nM, the “Weight” value was 6%, the koff worked out at 0.000449 s⁻¹ and the kon amounted to 19500 M⁻¹ s⁻¹.

B3: anti-HER3 antibody M-17-02 (antibody, V domains shown)
VH: EVQLQQSGTVLARPGASVKMSCKASGYSFTSYWIHWVKQRPGQGLEWIGAIYPGNSDTTYNQKFKGKAKLTAVTSASTAYMELSSLTNEDSAVYYCARTGVWTSYYFDYWGQGTTLTVSS
VL: DIQMTQSPASLSASVGETVTITCRASENIYSNLAWYQQKQGKSPQLLVYAATNLADGVPSRFSGSGSGTQFSLRINSLQPEDFGSYYCQHFYGTPFTFGTGTKLEIK
notes: mouse hybridoma clone
With B3, the “OD 405 nm” value in the assay with TtSlyDcys-Her3 stood at 1.55 OD.

B4: anti-HER3 antibody M-43-01 (antibody, V domains shown)
VH: EVQLQQSGTVLARPGASVKMSCKASDYTFSNYWVHWVKQRPGQGLEWIGAIYPGNGDSTYYQKFKGKATLTAVTSTSTAYMDLSSLTNGDSAVYFCTRSGVGYNYYFDYWGQGTTLTVSS
VL: B3 VL with A50I, R74K, F83L, K107E
notes: mouse hybridoma clone
For the molecule B4, in assay [1], the Kd was determined as 62 nM, the “Weight” value was determined as 13%, the koff is 0.000988 s⁻¹ and the kon is 15900 M⁻¹ s⁻¹. The “OD 405 nm” value with TtSlyDcys-Her3 amounted to 3.5 OD. Also, in the assay with TtSlyD-Wildtype, the binding result was “no binding”. The binding result in assay [2] is reported as “no binding (tested: 450 nM)”. The binding result in assay [3] is “no binding (tested: 90 nM)”.
